Laboratory results: PMC12444171, “Chromatin remodeler BRD9 represses transcription of PPARα target genes, including CPT1A to suppress lipid metabolism” (Journal of Lipid Research, 2025)

Target: T1, BRD7-His (bromodomain-containing protein 7 with His tag) (human, UniProt Q9NPI1 1-651)
T1 construct: Bromodomain-containing protein 7, human; source: HEK293T, transfected, in lysate; for the pull-down purified from HEK293T cell lysates
T1 sequence (looked up): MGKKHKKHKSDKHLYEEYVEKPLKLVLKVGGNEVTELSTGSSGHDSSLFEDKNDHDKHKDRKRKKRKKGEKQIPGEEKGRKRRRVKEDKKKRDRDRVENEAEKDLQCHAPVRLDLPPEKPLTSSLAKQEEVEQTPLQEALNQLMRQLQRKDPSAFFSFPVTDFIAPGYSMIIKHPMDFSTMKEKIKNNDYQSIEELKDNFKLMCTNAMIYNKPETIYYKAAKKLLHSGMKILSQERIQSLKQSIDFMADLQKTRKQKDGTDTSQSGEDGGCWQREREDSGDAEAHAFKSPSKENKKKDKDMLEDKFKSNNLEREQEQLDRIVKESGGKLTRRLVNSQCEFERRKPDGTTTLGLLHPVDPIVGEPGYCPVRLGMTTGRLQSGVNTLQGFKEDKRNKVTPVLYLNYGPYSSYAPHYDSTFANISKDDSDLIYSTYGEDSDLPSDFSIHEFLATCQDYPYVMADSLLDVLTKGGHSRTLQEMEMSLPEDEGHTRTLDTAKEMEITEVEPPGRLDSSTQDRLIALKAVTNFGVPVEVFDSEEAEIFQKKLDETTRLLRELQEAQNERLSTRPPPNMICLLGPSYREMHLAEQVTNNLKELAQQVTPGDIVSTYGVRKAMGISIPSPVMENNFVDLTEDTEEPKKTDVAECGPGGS
Assay: co-IP; HEK293T cells co-transfected with FLAG-PPARα and BRD7-His or BRD9-His; lysate (0.3 M NaCl, 0.5% NP-40, pH 8.0) on anti-His tag antibody-Dynabeads Protein G, 2 h at room temperature; Western blot; in Fig. 5C the cells were treated with 30 μM WY-14643 and/or 40 μM BI-9564 for 48 h (interaction markedly attenuated)
Settings: partners not purified

B1: FLAG-PPARα (peroxisome proliferator-activated receptor α with 3×FLAG) (natural protein, human, UniProt Q07869 1-468, looked up)
chain: MVDTESPLCPLSPLEAGDLESPLSEEFLQEMGNIQEISQSIGEDSSGSFGFTEYQYLGSCPGSDGSVITDTLSPASSPSSVTYPVVPGSVDESPSGALNIECRICGDKASGYHYGVHACEGCKGFFRRTIRLKLVYDKCDRSCKIQKKNRNKCQYCRFHKCLSVGMSHNAIRFGRMPRSEKAKLKAEILTCEHDIEDSETADLKSLAKRIYEAYLKNFNMNKVKARVILSGKASNNPPFVIHDMETLCMAEKTLVAKLVANGIQNKEAEVRIFHCCQCTSVETVTELTEFAKAIPGFANLDLNDQVTLLKYGVYEAIFAMLSSVMNKDGMLVAYGNGFITREFLKSLRKPFCDIMEPKFDFAMKFNALELDDSDISLFVAAIICCGDRPGLLNVGHIEKMQEGIVHVLRLHLQSNHPDDIFLFPKLLQKMADLRQLVTEHAQLVQIIKKTESDAALHPLLQEIYRDMY
modifications: acetylated lysine residue(s), positions not given
notes: the sites are not mapped; source: HEK293T, transfected (pcDNA3.1), in lysate; for the pull-down captured from lysate on anti-FLAG antibody-Dynabeads Protein G and washed; not shown: 3×FLAG, N-terminal, kept
B1: binds.
